The values below come from patent US20240293588A1, “THERAPEUTIC CONJUGATES” (Starpharma Pty Ltd, priority 2020, published 2024).

In one assay the target is ErbB2-ECD (Homo sapiens, UniProt P04626). In words: SPR binding studies with immobilized ErbB2-ECD. To be noted: result in words. On the procedure: Using a ProteOn XPR36 instrument, ErbB2-ECD was immobilized at 25° C. onto a GLC sensor chip surface (Bio-Rad), with HBS-P+ running buffer (10 mM HEPES, pH 7.4, 150 mM NaCl, 0.05% Tween 20). Standard amine coupling methodology described in Bio-Rad's amine coupling kit was utilized for this immobilization. Lane 1 was activated with a 50:50 mixture of EDC (0.5 mM) and sulfo-NHS (0.125 mM). ErbB2 protein was diluted to […] in 10 mM sodium acetate, pH 5.0 and injected over the activated surface channel. Any remaining activated sites were blocked with 1 M ethanolamine-HCl, pH 8.5.
All SPR binding experiments were performed at 25° C. using HBS-EP+/BSA (10 mM HEPES, pH 7.4, 150 mM NaCl, 3 mM EDTA, 0.05% Tween20, 0.1 mg/ml BSA) as the instrument running buffer (RB). Following immobilization procedures, various concentrations of anti-ErbB2 affibodies and their MMAE-dendrimer conjugates were injected at 60 μl/min over immobilized ErbB2 proteins and their association monitored for 90 sec. Running buffer was subsequently injected over bound Ab-ErbB2 complexes and dissociation monitored for up to 60 min. […] All binding measurements were performed in triplicate.
Collected experimental data were processed using Scrubber-Pro software (www.biologic.com.au). […]
Background: In SPR one partner is held on a chip, and binding of the other changes the refractive index at the surface.

Assay [1] has as its target T1, HER2 (human epidermal growth factor receptor 2) on cells (human, UniProt P04626 23-1255).
T1 construct: whole, on cells; also called ERBB2; HER2 receptor
In words: flow cytometry (Cy5), MDA-MB-231 parental cells (HER2 lo, control), 3.33 nM, 37 °C, 1 h.

Assay [2] addresses T1, HER2 (human epidermal growth factor …). Briefly: flow cytometry (Cy5), MDA-MB-231 parental cells (HER2 lo, control), 3.33 nM, 37 °C, 24 h. The protocol: (§1) After incubation, non-binding/non-associating particles were removed from adherent cells by gently washing with DPBS three times (300 μL/well). Cells were removed from plates by treatment with TrypLE™ Express Enzyme (1×), no phenol red (150 μL/well) for 5-10 min at room temperature. The plates were then placed on ice. Cellular binding and association of sample were then determined through flow cytometry by the acquisition of the signal from Cy5.
(§2) To measure internalisation kinetics, nanobody-dendrimer was incubated with cells for 24, 4, 1, 0.5, and 0.1 hours at 37° C. before unbound nanobody-dendrimer was removed by washing and analysed by flow cytometry.
On the technique in general: In flow cytometry, cells or beads pass a laser one at a time.

The target is the same in assay [3]. In words: flow cytometry (Cy5), MDA-MB-231 parental cells (HER2 lo, control), 0.5 h.
Assay [4] has the same target. In words: flow cytometry (Cy5), MDA-MB-231/HER2 cells, 3.33 nM, 37 °C, 4 h.
The target is the same in assay [5]. Briefly: flow cytometry (Cy5), MDA-MB-231/HER2 cells, 3.33 nM, 37 °C, 0.25 h. The protocol:
as §1, §2

Assay [6] shares this target. Briefly: flow cytometry (Cy5), MDA-MB-231/HER2 cells, 3.33 nM, 37 °C, 0.5 h. On the procedure:
as §1, §2

Assay [7] shares this target. Briefly: flow cytometry (Cy5), MDA-MB-231 parental cells (HER2 lo, control), 4 h.
The target is the same in assay [8]. In words: flow cytometry (Cy5), MDA-MB-231 parental cells (HER2 lo, control), 3.33 nM, 37 °C, 4 h. The protocol: as §1, §2
The target is the same in assay [9]. In words: flow cytometry (Cy5), MDA-MB-231/HER2 cells, 0.5 h.
The target is the same in assay [10]. Briefly: flow cytometry (Cy5), MDA-MB-231 parental cells (HER2 lo, control), 3.33 nM, 37 °C, 0.25 h. The protocol: as §1, §2
For assay [11] the target is unchanged. Briefly: flow cytometry (Cy5), MDA-MB-231/HER2 cells, 3.33 nM, 37 °C, 1 h.
For assay [12] the target is unchanged. Briefly: flow cytometry (Cy5), MDA-MB-231 parental cells (HER2 lo, control), 24 h.
Assay [13] has the same target. In words: flow cytometry (Cy5), MDA-MB-231/HER2 cells, 1 h.
The target is the same in assay [14]. In words: flow cytometry (Cy5), MDA-MB-231 parental cells (HER2 lo, control), 1 h.
The target is the same in assay [15]. Briefly: flow cytometry (Cy5), HER2-positive MDA-MB-453 cells, triplicate wells.
For assay [16] the target is unchanged. Briefly: flow cytometry (Cy5), MDA-MB-231 parental cells (HER2 lo, control), 3.33 nM, 37 °C, 0.5 h. On the procedure:
as §1, §2

For assay [17] the target is unchanged. In words: flow cytometry (Cy5), MDA-MB-231/HER2 cells, 0.25 h.
For assay [18] the target is unchanged. In words: flow cytometry (Cy5), MDA-MB-231/HER2 cells, 24 h.
Assay [19] shares this target. Briefly: flow cytometry (Cy5), MDA-MB-231 parental cells (HER2 lo, control), 0.25 h.
Assay [20] has the same target. In words: flow cytometry (Cy5), MDA-MB-231 parental cells (HER2 lo, control), 2 h.
Assay [21] shares this target. Briefly: flow cytometry (Cy5), MDA-MB-231/HER2 cells, 3.33 nM, 37 °C, 24 h.
For assay [22] the target is unchanged. Briefly: flow cytometry (Cy5), MDA-MB-231 parental cells (HER2 lo, control), 3.33 nM, 37 °C, 2 h. On the procedure: as §1, §2
Assay [23] shares this target. In words: flow cytometry (Cy5), MDA-MB-231/HER2 cells, 4 h.
Assay [24] has the same target. In words: flow cytometry (Cy5), MDA-MB-231/HER2 cells, 3.33 nM, 37 °C, 2 h.
The target is the same in assay [25]. In words: flow cytometry (Cy5), MDA-MB-231/HER2 cells, 2 h.

As for “Azido-PEG24CO—[N(PN)2][Lys]2[Lys]4[Lys]8[(α-NHGlu-vc-PAB-MMAE)8(ε-NH-COPEG2000)8], G3 [Compound 66]”, the “binding to ErbB2 proteins (SPR)” value on ErbB2-ECD is “No binding”.
The same measure, in the same setting: next, “Azido-PEG24CO—[N(PN)2][Lys]2[Lys]4[Lys]8[(α-NHGlu-vc-PAB-MMAE)8(ε-NH-COPEG1100)8], G3 [Compound 65]”: “No binding”.

B1: Nanobody*-N3/DBCO-NHCO-PEG12TCO/(MeTzPh)PEG4CO-NHPEG24CO-[N(PN)2][Lys]4[Lys]8[((α-NHCy5)1(α-NHAc)7)(ε-NH-COPEG1100)8], Compound 124 (VHH)
VHH: EVQLVESGGSLVQPGGSLRLSCAASGFTFDDYAMSWVRQVPGKGLEWVSSINWSGTHTDYADSVKGRFTISRNNANNTLYLQMNSLKSEDTAVYYCAKNWRDAGTTWFEKSGSAGQGTQVTVSS
modifications: C-terminal # (unnatural amino acid, p-azido-phenylalanine) clicked to DBCO-NHCO-PEG12-TCO, joined to the tetrazine at the core of the G3 lysine dendrimer Compound 52 (1 Cy5, 7 acetyl, 8 PEG1100)
notes: also called G3 2D3 conjugated dendrimer
As to B1, the “percent of cellular association” value was 0.8% in assay [1]; 0.83% in [2]; 50.6% in assay [4]; 0.67% in assay [5]; 0.6% in assay [6]; 0.93% in [8]. Further, the “percent of cellular association” value in [10] is 1.07%; in assay [11], 2.57%; in [16], 0.87%; in [21] it was 60.7%; in assay [22], 1.13%; in assay [24], 17.4%. Moreover, the MFI in [3] was found to be 228; in assay [7], 250; in assay [9], 226; in [12] it was 224; in assay [13], 294; in assay [14], 237. Also, the MFI came out at 50.8 in assay [15]; 235 in assay [17]; 1110 in [18]; 246 in assay [19]; 241 in [20]; 800 in assay [23]. The molecule also came in with an MFI in [25] of 445.

B2: Nanobody*-N3/DBCO-NHCO-PEG12TCO/(MeTzPh)PEG4CO-NHPEG24CO-[N(PN)2][Lys]2[Lys]4[Lys]8[Lys]16[Lys]32[((α-NHCy5)1(α-NHAc)31)(ε-NH-COPEG1100)32], Compound 126 (VHH)
VHH: B1 VHH
modifications: C-terminal # (unnatural amino acid, p-azido-phenylalanine) clicked to DBCO-NHCO-PEG12-TCO, joined to the tetrazine at the core of the G5 lysine dendrimer Compound 54 (1 Cy5, 31 acetyl, 32 PEG1100)
notes: G5 2D3 conjugated dendrimer
Turning to B2, the “percent of cellular association” value in assay [1] is 1.37%; in assay [2], 0.8%; in [4] it was 59.8%; in assay [5] it was 0.43%; in [6] it was 0.7%; in assay [8], 0.67%. The “percent of cellular association” value stood at 0.53% in assay [10]; 2.8% in [11]; 1.03% in assay [16]; 73.5% in assay [21]; 0.73% in assay [22]; 18% in assay [24]. In addition, the MFI in [3] came out at 245; in [7] it was 247; in [9], 237; in assay [12] it was 223; in assay [13], 295; in assay [14] it was 254. Further, the MFI in assay [15] came out at 177; in assay [17], 207; in assay [18], 2750; in [19], 195; in assay [20] it was 233; in [23] it was 1040. The molecule further registered an MFI in [25] of 436.

B3: Nanobody*-N3/DBCO-NHCO-PEG12TCO/((MeTzPh)PEG4CO-NHPEG24CO-[N(PN)2][Lys]2[Lys]4[Lys]8[Lys]16[((α-NHCy5)1(α-NHAc)15)(ε-NH-COPEG1100)16, Compound 125 (VHH)
VHH: B1 VHH
modifications: C-terminal # (unnatural amino acid, p-azido-phenylalanine) clicked to DBCO-NHCO-PEG12-TCO, joined to the tetrazine at the core of the G4 lysine dendrimer Compound 53 (1 Cy5, 15 acetyl, 16 PEG1100)
notes: also called G4 2D3 conjugated dendrimer
Turning to B3, the “percent of cellular association” value amounted to 1% in assay [1]; 0.87% in assay [2]; 36% in assay [4]; 0.57% in [5]; 0.67% in assay [6]; 0.83% in assay [8]. Moreover, the “percent of cellular association” value was determined as 0.87% in [10]; 0.77% in [11]; 0.53% in assay [16]; 56.3% in assay [21]; 0.77% in assay [22]; 6.13% in assay [24]. Moreover, the MFI in assay [3] is 223; in assay [7] it was 246; in assay [9], 224; in assay [12], 219; in assay [13] it was 241; in assay [14] it was 230. In addition, the MFI in assay [15] turned out to be 158; in [17] it was 215; in assay [18] it was 1010; in assay [19], 227; in assay [20] it was 236; in [23], 611. Besides, the MFI in [25] amounted to 342.
